Measured values published in the DeepSol protein solubility set.

Assay: soluble on expression in E. coli; label from the status in PepcDB or PDB records

Sequence	soluble on expression in E. coli
MVAIFDICAYFNNSILVIVDIIMTELLEPAARASTQETLTDQIFKKIQSAIVSGEIAAGSKISEPELARVYGISRGPLREAIHRLEGQKLVERTAHVGARVVSLSHQQLRELYQIRENLEGLACRLAAQSIDKQQILNLRDVLHLHAQDPDFKEGKGYYLQEGQDDFHYCIIKNCGNKTLEKMLCDELYHLIRMYRVQYSKTPNRPHRALSEHLHILNAIAEGDTELAELLMRRHIAASYRNIEQHFI	not soluble
MVAKDYPFYLTVKRANCSLEAPLGSGVAKDEEPSNKRVKPLSRVTSLANLIPPVKTTPLKRFSQTLQRSISFRSESRPDILAPRAWSRNATSSSTKRRDSKLWSETFDVCVNQVLTAKEIKRQEAIFELSQGEEDLIEDLKLAKKAYHDPMLKLSIMTEQELNQIFGTLDSLIPLHEELLSQLRDVRKPDGSTEHVGPILVGWLPCLSSYDSYCSNQVAAKALLDHKKQDHRVQDFLQRCLESPFSRKLDLWNFLDIPRSRLVKYPLLLREILRHTPNDNPDQQHLEEAINIIQGIVAEINTKTGESECRYYKERLLYLEEGQKDSLIDSSRVLCCHGELKNNRGVKLHVFLFQEVLVITRAVTHNEQLCYQLYRQPIPVKDLTLEDLQDGEVRLGGSLRGAFSNNERVKNFFRVSFKNGSQSQTHSLQANDTFNKQQWLNCIRQAKETVLSAAGQAGLLDSEGLVQGPGTENREPQGETKLEQMDQSDSESDCSMDTSEVSLECERMEQTDASCANSRPEESV	soluble
MVDGFVQPVGEGLADQLVGHQVGYGGVQWDQCLAEVGDVAVVHFFHQAVRQVGFVEQGVEAVVAGEQRRRGEEELLGDLQHRLDPFLDAGFAGHAVGGVEQVRYLFDVGVDEAGEYVFRVLALRLDGAMQVGQAAGYQISQVTVAGFAEVRLLDEFTEGSGVHGVSHTTGMVKKRRNIAGGARRLRRDCHNRFVVMRG	not soluble
MVDIVKRRDWEKKEKKKIAIERIDTLFTLAERVARYSPDLAKRYVELALEIQKKAKVKIPRKWKRRYCKRCHTFLIPGVNARVRLRTKRMPHVVITCLECGYIMRYPYLREVKQKRKKAT	soluble
MVDLGSDRLPVAVIGAGPVGLAAAAHLAERSVPFVVLEAGDAAATAVQAWSHIQLFSPWEFNTDPAARRLLAAAGWEEPDASALPTGGDLVKQYLQPLAELPALASHIRYGAEVTAISRLGIDRLRTADRDAAPFVLRLADGEEVLARAVIDASGTWRQPNHVGANGLPAHGEKDAAAWINHGLPDVFGADRDQHAGRHTVVVGAGHSAANTLLALAELADTAPGTTITWAIRGADPAASFGGGSDDELPARGAIGSGLKMLVETGRVTLAANFRTHAVRRLGDDPSRDQVELVSRALDGTERSVTADRVVAATGFRPDYRIVDELRLELDPIMSAPRALAPLIDPNQHSCGTVTPHGYRELAHPEPGYYAVGMKSYGRAPTFLMLTGYEQVRSIAAALAGDLEAAQSVELQLPETGVCSVTAGGEALALRLGLTKDQHEQLLHVTAKHLGTSATASDAVLSAATELGIDQTAALQLAAYAADMFDAPGAPGCLEHHHHHH	not soluble
MVDSRAFKLKEGREREVDMTSETEKRIIALEETIAHQAKTIEELSDQLAEQWKVVEQTRAKLDRLTERFLSLEEQSLDAPAITRPPHY	not soluble
MVDTHKLADDVLQLLDNRIEDNYRVCVILVGSPGSGKSTIAEELCQIINEKYHTFLSEHPNVIEVNDRLKPMVNLVDSLKTLQPNKVAEMIENQGLFKDHVEDVNFQPVKYSALTSNNEECTAVVARGGTANAIRIAAVDNPVNVNKLAQDSINIAQIVPMDGFHLSRRCLDLFKDPQTAHKRRGSPSTFDSNNFLQLCKILAKTSLCKVSSHHKFYSTSSVFEKLSKTFSQTIPDIFVPGFNHALKDPTPDQYCISKFTRIVILEGLYLLYDQENWKKIYKTLADTGALLVYKIDIDYEATEERVAKRHLQSGLVTTIAEGREKFRSNDLLNGRDIDNHLIKVDNIVHIRNDHHHHHH	soluble
MVEIDPFEMAVKQLERAAQYMDISEEALEWLKKPMRIVEVSVPIEMDDGSVKVFTGFRVQHNWARGPTKGGIRWHPAETLSTVKALATWMTWKVAVVDLPYGGGKGGIIVNPKELSEREQERLARAYIRAVYDVIGPWTDIPAPDVYTNPKIMGWMMDEYETIMRRKGPAFGVITGKPLSIGGSLGRGTATAQGAIFTIREAAKALGIDLKGKKIAVQGYGNAGYYTAKLAKEQLGMTVVAVSDSRGGIYNPDGLDPDEVLKWKREHGSVKDFPGATNITNEELLELEVDVLAPAAIEEVITEKNADNIKAKIVAEVANGPVTPEADDILREKGILQIPDFLCNAGGVTVSYFEWVQNINGYYWTEEEVREKLDKKMTKAFWEVYNTHKDKNIHMRDAAYVVAVSRVYQAMKDRGWVKK	soluble
MVEIIDTTFRDAHQSLIATRMSTKDMLPIAEKMDKIGFYSMEVWGGATFDVSLRFLREDPWERLKLLREHIRKTKLQMLLRGQNLVGYRHYPDDVVEKFVELAYKNGIDIFRVFDALNDVRNMKTAIKKAKEIGAEVQGAICYTTGPIFTIDYYLQKVDELIELDVDYITIKDMAGLADPQTAYELVKEIKERYGIKVNFHTHATSGLAVATYLKAVEAGVDYIDTSIYPLAGGTAQPAVQTMYYALPKGKRPKLNIKLIHEISKYLTNLLEKKYDHLLTKKAIHGDPNVLIHQIPGGMYSNLIKQLSELKALDKLEEVLEEVPRVREDLGYPPLVTPTSQIVGVQAVLNVLFGRYKQVTKETKDYVRGLYGRPPGKIKEEIKKLILGDEEPINVRPADLLEPMLEKAKKELKEKGYLEKEEDVVTYCLFPQVALEFFELRRQGRLRPVEEKPKGKPIKIYINGKEFEVFVEGIEFEPPKPKPQVQAIPSQPPKREVVAPSGSVVSAPMPGKVLRVLVRVGDRVRVGQGLLVLEAMKMENEIPSPRDGVVKRILVKEGEAVDTGQPLIELE	soluble
MVEKFDTIYDYYVDKGYEPSKKRDIIAVFRVTPAEGYTIEQAAGAVAAESSTGTWTTLYPWYEQERWADLSAKAYDFHDMGDGSWIVRIAYPFHAFEEANLPGLLASIAGNIFGMKRVKGLRLEDLYFPEKLIREFDGPAFGIEGVRKMLEIKDRPIYGVVPKPKVGYSPEEFEKLAYDLLSNGADYMKDDENLTSPWYNRFEERAEIMAKIIDKVENETGEKKTWFANITADLLEMEQRLEVLADLGLKHAMVDVVITGWGALRYIRDLAADYGLAIHGHRAMHAAFTRNPYHGISMFVLAKLYRLIGIDQLHVGTAGAGKLEGGKWDVIQNARILRESHYKPDENDVFHLEQKFYSIKAAFPTSSGGLHPGNIQPVIEALGTDIVLQLGGGTLGHPDGPAAGARAVRQAIDAIMQGIPLDEYAKTHKELARALEKWGHVTPV	soluble
MVENLKQLQERVAVSDGRAKADLVIKNGRIINVFSGEIMDGDIAIKNGYIAGIGSFPDAEKIIDAAGAFIAPGFIDAHVHVESAMVTPAEFARVLLPNGVTTIVTDPHEIANVAGEKGIEFMLEDAKGAPLDMFVMLPSSVPATEGEHNGETLHAEKLHPLYRHEKVIGLAEVMDFPSVAKGSDDILRKIIDAKKEGGRIDGHGAGLTSADLNNYLAVGIRTDHESTTAKEATDRLRAGMFVMLREGTVGRDLLQTIPAVSEKNSHRFCFCTDDKLINDLITEGSINYNIKLAIKNGIDPITAIQMATINAANCHNLPYLGAVAAGYQADIVFLTDIETVEISKVLKNGEVVVDNGVRNEAAFKQQAAVPFVSPPINHHVHLQDLALPLTKETCYVIGMQPNSLFTEKRIEQVTIQGGKFVPTVENDLLKMAVVERHHDTGCVGVGIVKGFGLTEGAIATTVAHDSHNIVAVGVSDEAMKAAIDHITQTGGGIAVVNGAGQVLHDLALPIAGLLSDKSYEEVENDLAGLLNAFKQISTANGFDPFLTLSFLTLPVIPELKLTDQGLFDFATFQIISNEVN	not soluble
MVERLTIIRGVEKFELQTKTARWVLAKEEGYSPVQMLVSAIGACGGYVYQSVLENSHIPFEFEKIEVTYSREVERRAQPLKQVTILFYVTVPEAFQERATRCLKLVSPNCPVIQSLAERITVEETVVFKK	not soluble
MVFKPHRINCRDFTFKIELKEKKILRGRAMLDKIDRKLLALLQQDCTLSLQALAEAVNLTTTPCWKRLKRLEDDGILIGKVALLDPEKIGLGLTAFVLIKTQHHSSEWYCRFVTVVTEMPEVLGVWRMAGEYDYLMRVQVADMKRYDEFYKRLVNSVPGLSDVTSSFAMEQIKYTTSLPIE	not soluble
MVGHSESSTDAVIEPTSEELLAEQVRVFNKMKGSTNFNRVAEDVYPVEVTKSKLVCEMVVQHQHLNSKGTLHGGQTATLTDVITARAVGVTVKDKGMASVELAVSYLLPVKVGDVLEITAHVLKVGRTMAFTDCEFRRKSDGKMSAKGKHTLAFLPNQPGISVENGTQFLEHHHHHHS	soluble
MVGQVIRKRGAYPEYTVEDVLAVIFLLKEPLGRKQISERLELGEGSVRTLLRKLSHLDIIRSKQRGHFLTLKGKEIRDKLLSMFSEPIGVSVDGYPGIAIVVKNPPEFKSIELRDEAIKFDAKGAMILTVKDNEIVFPEDFRPLKEMYPEVAKKIVDYEDGDAVIITWAETPAKALKSAIHVAYILKKEEITPEILEVVK	soluble
MVGTFLGTGASSGVPMLNCSCKVCTSSYSKNKRLRSSFFLESSSGIKLLIDTGPDIRQQLLREKIDRLDLVLYTHEHYDHIMGFDDIKFYTRCAPLNIYARDTAMAHIRNAFPYNFTSKPSLSGKADIIANVIRDFEPFFFKSLKIVPIPLIHGDIISLGYRVGNLAYLTDVKFIPEASYDYLKNLDLLIIDAMRIKPHPAHLNFSEAFCVIKKINPKISYFTHIAHDIMHEEFDYLEKDNIYLAYDGLKIYILEHHHHHH	not soluble
MVHYKLTYFNARGLAEISRQLFHMAGVEFEDERINEEKFSQLKPTFPSGQVPILCIDGAQFSQSTAIARYLARKFGFVGQTAEEELQADEVVDTFKDFIESFRKFVIAVLSGESEEILKNIREEVIKPAVKTYTAYLKAILEKSSSGYLVGNELTWADLVIADNLTTLINAELLDIENDKLLKEFREKIIETPKLKEWLAKRPETRF	not soluble
MVINQNEAHAIQRIDSDEEPTVSVVDVVATVATPHFDEPLKRKWRLKCAEYGTFMASLLDTDFAEHVTAHQVRCDGVRFKVKLRVEEAKGRSPRFEILAMSPEDSSGVQTLL	not soluble
MVIPALNEAPTVAKVVEAVLADNPLEVLVIDADSTDATAAEARSAGATVLNWREILDTEPIPGKGESLWRGVAAARGDIVVFVDADLTSFRPGMVNSLVAPFLNDDIHLVKADYVRTFGDHTTGGGRVTELTAKPLLRALFPELSHIRQPLGGEYAIRRSTALAMPFVSGYGVEVGLLIDVATQFGTSSIAQVDLGSRSHNHQSLEALGSMADVVATTILQRFGHDLPVVQREPLGIHLEHHHHHH	not soluble
MVKCMKPGKAVILLQGRYTGKKAVIVKSFDDGTVEKKYGHCLVAGLKKYPSKVIRKDSAKKTAKKSRVKCFFKVINYQHVMPTRYTLDLDLKNVVSADAISSKDKKVTALKEAKAKFEERFKTGKNRWFFTKLRF	not soluble
MVKFTTFLCIIALLLCSTLTHASARLNPTSVYPEENSFKKLEQGEVICEGVGEEECFLIRRTLVAHTDYIYTQNHNP	soluble
MVKIIENKLIDAEPLKDAVLIEGLPGIGHVGRVAAEHIVEEFNGEKVLELYCDDFPPQIVVKNDGTIEYMKNEFYLVKEPVPMVIVLGNTQALSPKGQYVLSEKIVDIAMKYGATKTYTLGGFGIGKISDELKVYVASTSKELSEQHKELGAEFRTDGGSIIGAAGLMLKFSKLKGIEGICLMGETPGYLVDPKSAGNVLEMLSKAIGFEIDMKKLDERAKEMEKFIEKVQMQEQGMQAPQHQDDLSYIG	not soluble
MVKKSEFERGDIVLVGFDPASGHEQQGAGRPALVLSVQAFNQLGMTLVAPITQGGNFARYAGFSVPLHCEEGDVHGVVLVNQVRMMDLHARLAKRIGLAADEVVEEALLRLQAVVE	soluble
